Patent publication US7598225B1 (priority 1995, dated 2009)

What was measured:
[1] = target: human HLA A2 molecules (Homo sapiens, UniProt P04439, /I121R/I166T/I218V/L300P/L318F/N151K/N90K/P208A/P217A/Q86G/Q94H/R138H/R169H/T345S); assay type: binding
[2] = system: PBMC from donors expressing the HLA A2 class 1 allele; assay type: cell-based, human

Substance	score in T2 cell binding assay [1]	T cell lines from PBMC of two prostate cancer patients [2]
PSA 141-150: PSA peptide, amino acids 141-150, sequence F L T P K K L Q C V (Table 7) (FLTPKKLQCV)	positive	–
PSA 154-163: PSA peptide, amino acids 154-163, sequence V I S N D V C A Q V (Table 7) (VISNDVCAQV)	positive	established
PSA 146-154: PSA peptide, amino acids 146-154, sequence K L Q C V D L H V (Table 7) (KLQCVDLHV)	positive	–
